US10562935B2, “Stapled peptides and uses thereof” (London Health Sciences Centre Research Inc., priority 2015, dated 2020)
Bridges are numbered along the chain shown (N, C = ends).

Key:
[1] = Circular dichroism (CD) spectroscopy of linear and stapled peptides in water or 40% TFE/water (Example 3); format: physicochemical; conditions: for [0]208 mean residue ellipticity: λ = 208 nm; for [0]222 mean residue ellipticity: λ = 222 nm
Procedure, shortened: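 Spectra 180–260 nm at 20 °C, 0.5 mM N-acetylated, C-amidated peptides in 0.1M phosphate buffer (water) or 40% TFE/water, 1 mm path, five scans averaged, buffer baseline subtracted. Mean residue ellipticity reported at 222 and 208 nm with the 222/208 ratio as helicity index.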

NF-κB = test: Inflammation assay: NF-κB inducible SEAP reporter in RAW-Blue macrophages stimulated with PAM3CSK4; format: cell-based, murine; conditions: for Inflammation (% Inhib.): % inhibition relative to positive control
Procedure, shortened: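 RAW-Blue murine RAW 264.7 macrophages carrying an NF-κB-inducible SEAP reporter were stimulated with 200 ng/mL PAM3CSK4 and given peptide at 10 ng/mL. After 18 h, supernatant SEAP was developed with QUANTI-BLUE for 20 min at 37 °C and read by absorbance at 630 nm. Values are mean and SDM of n=3.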

[2] = [θ]222/[θ]208 ratio in water, summary tables 15, 17, 19
[3] = as repeated in tables 16, 18, 20

| Substance | [θ]222/[θ]208 ratio of ellipticities [1, 2] | [θ]222/[θ]208 ratio of ellipticities [1, 3] | [0]222/[0]208 ratio of ellipticities ([1]; in 40% TFE/water) | [0]222/[0]208 ratio of ellipticities ([1]; in water) | alpha-helical character by CD (in words) ([1]; in water) | [0]208 mean residue ellipticity ([1]; in 40% TFE/water) | [0]208 mean residue ellipticity ([1]; in water) | [0]222 mean residue ellipticity ([1]; in 40% TFE/water) | [0]222 mean residue ellipticity ([1]; in water) | Inflammation (% Inhib.) (NF-κB) | inhibition of inflammation (SEAP / NF-κB activity, in words) (NF-κB; 10 ng/mL peptide with 200 ng/mL PAM3CSK4, 18 hours, compared to +PAM3) | [0]208 mean residue ellipticity at λ=208 nm ([1]; 40% TFE/water) | [0]222/[0]208 ratio of ellipticities ([1]; 40% TFE/water) | [0]222 mean residue ellipticity at λ=222 nm ([1]; 40% TFE/water) | [0]208 mean residue ellipticity at λ=208 nm ([1]; water) | [0]222/[0]208 ratio of ellipticities ([1]; water) | [0]222 mean residue ellipticity at λ=222 nm ([1]; water) |
| --- | --- | --- | --- | --- | --- | --- | --- | --- | --- | --- | --- | --- | --- | --- | --- | --- | --- |
| Ac-(cyclo-4,8)-VSK[ERSQK]VKRKQN-NH2 (Ac-VSKERSQKVKRKQN-NH2; lactam 4-8; SMILES CC(=O)N[C@H](C(=O)N[C@@H](CO)C(=O)N[C@@H](CCCCN)C(=O)N[C@H]1CCC(=O)NCCCC[C@@H](C(=O)N[C@H](C(=O)N[C@@H](CCCCN)C(=O)N[C@@H](CCCNC(=N)N)C(=O)N[C@@H](CCCCN)C(=O)N[C@@H](CCC(N)=O)C(=O)N[C@@H](CC(N)=O)C(N)=O)C(C)C)NC(=O)[C@H](CCC(N)=O)NC(=O)[C@H](CO)NC(=O)[C@H](CCCNC(=N)N)NC1=O)C(C)C) [Compound 150] | 0.53 | 0.53 | 0.81 | 0.53 | decreased helicity | -1.21E+04 deg cm^2 dmol^−1 | -6.30E+03 deg cm^2 dmol^−1 | -9.75E+03 deg cm^2 dmol^−1 | -3.35E+03 deg cm^2 dmol^−1 | 0 % Inhib. | – | – | – | – | – | – | – |
| Ac-(cyclo-6,10)-VSKLR[EQLVK]RKQN-NH2 (Ac-VSKLREQLVKRKQN-NH2; lactam 6-10; SMILES CC(=O)N[C@H](C(=O)N[C@@H](CO)C(=O)N[C@@H](CCCCN)C(=O)N[C@@H](CC(C)C)C(=O)N[C@@H](CCCNC(=N)N)C(=O)N[C@H]1CCC(=O)NCCCC[C@@H](C(=O)N[C@@H](CCCNC(=N)N)C(=O)N[C@@H](CCCCN)C(=O)N[C@@H](CCC(N)=O)C(=O)N[C@@H](CC(N)=O)C(N)=O)NC(=O)[C@H](C(C)C)NC(=O)[C@H](CC(C)C)NC(=O)[C@H](CCC(N)=O)NC1=O)C(C)C) [Compound 152] | – | 0.61 | 0.70 | 0.61 | – | -1.50E+04 deg cm^2 dmol^−1 | -7.90E+03 deg cm^2 dmol^−1 | -1.19E+04 deg cm^2 dmol^−1 | -4.85E+03 deg cm^2 dmol^−1 | – | significantly inhibited inflammation | – | – | – | – | – | – |
| Ac-(cyclo-5,9)-NLKQ[EIKHK]VKLKDE-NH2 (Ac-NLKQEIKHKVKLKDE-NH2; lactam 5-9; SMILES CC[C@H](C)[C@@H]1NC(=O)[C@@H](NC(=O)[C@H](CCC(N)=O)NC(=O)[C@H](CCCCN)NC(=O)[C@H](CC(C)C)NC(=O)[C@H](CC(N)=O)NC(C)=O)CCC(=O)NCCCC[C@@H](C(=O)N[C@H](C(=O)N[C@@H](CCCCN)C(=O)N[C@@H](CC(C)C)C(=O)N[C@@H](CCCCN)C(=O)N[C@@H](CC(=O)O)C(=O)N[C@@H](CCC(=O)O)C(N)=O)C(C)C)NC(=O)[C@H](Cc2c[nH]cn2)NC(=O)[C@H](CCCCN)NC1=O) [Compound 158] | 0.43 | 0.43 | 0.84 | 0.43 | – | -1.70E+04 deg cm^2 dmol^−1 | -6.60E+03 deg cm^2 dmol^−1 | -1.24E+04 deg cm^2 dmol^−1 | -2.83E+03 deg cm^2 dmol^−1 | 0 % Inhib. | – | – | – | – | – | – | – |
| Ac-(cyclo-10-14, cyclo-15-19)-KIKHVVKLK[EENSK][EKSEK]SKLRSQLVKRK-NH2 (Ac-KIKHVVKLKEENSKEKSEKSKLRSQLVKRK-NH2; lactam 10-14, 15-19; SMILES CC[C@H](C)[C@H](NC(=O)[C@H](CCCCN)NC(C)=O)C(=O)N[C@@H](CCCCN)C(=O)N[C@@H](Cc1c[nH]cn1)C(=O)N[C@H](C(=O)N[C@H](C(=O)N[C@@H](CCCCN)C(=O)N[C@@H](CC(C)C)C(=O)N[C@@H](CCCCN)C(=O)N[C@H]1CCC(=O)NCCCC[C@@H](C(=O)N[C@H]2CCC(=O)NCCCC[C@@H](C(=O)N[C@@H](CO)C(=O)N[C@@H](CCCCN)C(=O)N[C@@H](CC(C)C)C(=O)N[C@@H](CCCNC(=N)N)C(=O)N[C@@H](CO)C(=O)N[C@@H](CCC(N)=O)C(=O)N[C@@H](CC(C)C)C(=O)N[C@H](C(=O)N[C@@H](CCCCN)C(=O)N[C@@H](CCCNC(=N)N)C(=O)N[C@@H](CCCCN)C(N)=O)C(C)C)NC(=O)[C@H](CCC(=O)O)NC(=O)[C@H](CO)NC(=O)[C@H](CCCCN)NC2=O)NC(=O)[C@H](CO)NC(=O)[C@H](CC(N)=O)NC(=O)[C@H](CCC(=O)O)NC1=O)C(C)C)C(C)C) [Compound 266] | 0.63 | 0.63 | – | 0.63 | best improvement in helicity | – | – | – | – | 0 % Inhib. | – | -2.11E04 deg cm^2 dmol^−1 | 0.84 | -1.77E04 deg cm^2 dmol^−1 | -9.36E+03 deg cm^2 dmol^−1 | 0.63 | -5.89E+03 deg cm^2 dmol^−1 |
